In publication PMC3056017:

Molecular target: truncated recombinant mOGT (C-654) (human)

km for the peptide in the coupled enzyme assay of OGT transglycosylation (double-reciprocal plot; peptide 0.05 to 0.5 mM, UDP-GlcNAc held at 0.5 mM): 0.16 mM
Binder: YSDSPSTST [Peptide (…)]
